Measurements taken from PMC11116822, “Nuclear factor Y-A3b binds to the SINGLE FLOWER TRUSS promoter and regulates flowering time in tomato”.
Substitutions are numbered along the chain they refer to.

T1: SlNF-YA3b (MBP-6His fusion) (Solanum lycopersicum (tomato) cv. AC)
T1 chain: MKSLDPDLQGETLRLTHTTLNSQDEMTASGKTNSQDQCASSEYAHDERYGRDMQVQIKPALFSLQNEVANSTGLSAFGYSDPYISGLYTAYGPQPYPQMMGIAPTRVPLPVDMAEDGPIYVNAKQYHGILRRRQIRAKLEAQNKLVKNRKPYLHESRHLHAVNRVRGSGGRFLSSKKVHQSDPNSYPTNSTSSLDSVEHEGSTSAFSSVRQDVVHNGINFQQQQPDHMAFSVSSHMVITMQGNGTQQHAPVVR

B1: SFT-box4-m (dsDNA)
DNA 1: TTAAATTATGTTTTCTTGGGGGGGGTTTCATTCCTTATTTA
DNA 2: TAAATAAGGAATGAAACCCCCCCCAAGAAAACATAATTTAA
B2: SFT-box4 (dsDNA)
DNA 1: B1 DNA 1 with G19A, G20T, G21T
DNA 2: B1 DNA 2 with C21A, C22A, C23T
B3: SFT-box7 (dsDNA)
DNA 1: AGTTAGATCAGGCCGGCCCAATAGACCTAATCCATAGTG
DNA 2: CACTATGGATTAGGTCTATTGGGCCGGCCTGATCTAACT
B4: SFT-box6-m (dsDNA)
DNA 1: CCCTTCACCTTAGCATCAAAAAATAGGATTTACTACGAG
DNA 2: CTCGTAGTAAATCCTATTTTTTGATGCTAAGGTGAAGGG
B5: SFT-box6 (dsDNA)
DNA 1: B4 DNA 1 with A19C, A20C, A23T
DNA 2: B4 DNA 2 with T17A, T20G, T21G
B6: SFT-box2 (dsDNA)
DNA 1: TAGGGGTAAGGGTAAAATATTGGAAAAATCATTTAAATAT
DNA 2: ATATTTAAATGATTTTTCCAATATTTTACCCTTACCCCTA
B7: SFT-box2-m (dsDNA)
DNA 1: B6 DNA 1 with T20A, T21A, G22A, G23A
DNA 2: B6 DNA 2 with C18T, C19T, A20T, A21T
B8: SFT-box1 (dsDNA)
DNA 1: GAATCAAGACACGATGATATTGGGACGCTTTGGGGTGTAT
DNA 2: ATACACCCCAAAGCGTCCCAATATCATCGTGTCTTGATTC
B9: SFT-box1-m (dsDNA)
DNA 1: B8 DNA 1 with A19T, G22T, G23T
DNA 2: B8 DNA 2 with C18A, C19A, T22A
B10: SFT-box3 (dsDNA)
DNA 1: GTTAGATTGAAGTTAGTAATTGGTTATCCCACCGATGGATT
DNA 2: AATCCATCGGTGGGATAACCAATTACTAACTTCAATCTAAC
B11: SFT-box3-m (dsDNA)
DNA 1: B10 DNA 1 with A19T, G22T, G23T
DNA 2: B10 DNA 2 with C19A, C20A, T23A
B12: SFT-box5-m (dsDNA)
DNA 1: ATGTTTTATCATAAAAATAAAAAATGTTTTTAATATTAATC
DNA 2: GATTAATATTAAAAACATTTTTTATTTTTATGATAAAACAT
B13: SFT-box5 (dsDNA)
DNA 1: B12 DNA 1 with A20T, A21T, A22G, A23G
DNA 2: B12 DNA 2 with T19C, T20C, T21A, T22A
B14: SFT-box7-m (dsDNA)
DNA 1: AGTTAGATCAGGCCGGCGGGGGAGACCTAATCCATAGTG
DNA 2: CACTATGGATTAGGTCTCCCCCGCCGGCCTGATCTAACT

What was measured:
[1] = target: T1, SlNF-YA3b (MBP-6His fusion); assay: competition; 10- and 30-fold excess vs FAM box 4; EMSA on non-denaturing gels, FAM probes; buffer, salt, pH and temperature not stated; details: protein: recombinant; tags: MBP; 6xHis; blunt
[2] = target: T1, SlNF-YA3b (MBP-6His fusion); assay: EMSA; EMSA on non-denaturing gels, FAM probes; buffer, salt, pH and temperature not stated; details: protein: recombinant; tags: MBP; 6xHis; label: FAM on forward strand (probe); blunt
[3] = target: T1, SlNF-YA3b (MBP-6His fusion); assay: competition; 10- and 30-fold excess vs FAM box 6; EMSA on non-denaturing gels, FAM probes; buffer, salt, pH and temperature not stated; details: protein: recombinant; tags: MBP; 6xHis; blunt
[4] = target: T1, SlNF-YA3b (MBP-6His fusion); assay: competition; 10- and 30-fold excess vs FAM box 2; EMSA on non-denaturing gels, FAM probes; buffer, salt, pH and temperature not stated; details: protein: recombinant; tags: MBP; 6xHis; blunt
[5] = target: T1, SlNF-YA3b (MBP-6His fusion); assay: competition; 10- and 30-fold excess vs FAM box 1; EMSA on non-denaturing gels, FAM probes; buffer, salt, pH and temperature not stated; details: protein: recombinant; tags: MBP; 6xHis; blunt
[6] = target: T1, SlNF-YA3b (MBP-6His fusion); assay: competition; 10- and 30-fold excess vs FAM box 3; EMSA on non-denaturing gels, FAM probes; buffer, salt, pH and temperature not stated; details: protein: recombinant; tags: MBP; 6xHis; blunt
[7] = target: T1, SlNF-YA3b (MBP-6His fusion); assay: competition; 10- and 30-fold excess vs FAM box 5; EMSA on non-denaturing gels, FAM probes; buffer, salt, pH and temperature not stated; details: protein: recombinant; tags: MBP; 6xHis; blunt
[8] = target: T1, SlNF-YA3b (MBP-6His fusion); assay: competition; 10- and 30-fold excess vs FAM box 7; EMSA on non-denaturing gels, FAM probes; buffer, salt, pH and temperature not stated; details: protein: recombinant; tags: MBP; 6xHis; blunt

Binder | binding result [2] | other results
B1 | – | binding result [1]: no binding
B2 | binds | –
B3 | binds | –
B4 | – | binding result [3]: no binding
B5 | binds | –
B6 | binds | –
B7 | – | binding result [4]: no binding
B8 | binds | –
B9 | – | binding result [5]: no binding
B10 | binds | –
B11 | – | binding result [6]: no binding
B12 | – | binding result [7]: no binding
B13 | binds | –
B14 | – | binding result [8]: no binding
